Laboratory results taken from PMC4928677.

Target: GST-Cks2 (Xenopus laevis Cks2α, wild type) (Xenopus laevis) (UniProt Q91879)
Test: pull-down

Chain of UniProt Q91879 (Q91879 whole entry): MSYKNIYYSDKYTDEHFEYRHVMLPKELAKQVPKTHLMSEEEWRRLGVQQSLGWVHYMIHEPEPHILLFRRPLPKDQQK

Row | EC50 | Substance
1 | 120 nM | Hyperphosphorylated Wee1A (Flag-Wee1A-WT phosphorylated in vitro by cyclin B1-Cdk1) (from UniProt Q8AYK6 1-571) (natural protein)
2 | 526 nM | Hypophosphorylated Wee1A (Flag-Wee1A-WT incubated with cyclin B1-Cdk1 without ATP) (from UniProt Q8AYK6 1-571) (natural protein)
